According to publication PMC6274923, “Pinpointed Stimulation of EphA2 Receptors via DNA-Templated Oligovalence” (International Journal of Molecular Sciences, 2018):
Values belong to the molecule of their own block, whether it stands above or below them.

Target: T1, EphA2 receptor (Homo sapiens, UniProt P29317)
T1 construct: PC-3 prostate cancer cells that overexpress the EphA2 receptor; endogenous in cells; host or cells: PC-3 cells (ATCC CRL-1435)
Assay: EphA2 phosphorylation assay (sandwich ELISA, DuoSet IC Human Phospho-EphA2 kit) in PC-3 cells
Assay type: cell-based

[1] = serum-starved PC-3 cells, 30 min at 37 °C, duplicates, sandwich ELISA, approximate EC50 from least-square fit (Equation 1), mean ± standard deviation, concentration of whole entity (DNA construct or peptide)

T1 sequence (P29317 24-976): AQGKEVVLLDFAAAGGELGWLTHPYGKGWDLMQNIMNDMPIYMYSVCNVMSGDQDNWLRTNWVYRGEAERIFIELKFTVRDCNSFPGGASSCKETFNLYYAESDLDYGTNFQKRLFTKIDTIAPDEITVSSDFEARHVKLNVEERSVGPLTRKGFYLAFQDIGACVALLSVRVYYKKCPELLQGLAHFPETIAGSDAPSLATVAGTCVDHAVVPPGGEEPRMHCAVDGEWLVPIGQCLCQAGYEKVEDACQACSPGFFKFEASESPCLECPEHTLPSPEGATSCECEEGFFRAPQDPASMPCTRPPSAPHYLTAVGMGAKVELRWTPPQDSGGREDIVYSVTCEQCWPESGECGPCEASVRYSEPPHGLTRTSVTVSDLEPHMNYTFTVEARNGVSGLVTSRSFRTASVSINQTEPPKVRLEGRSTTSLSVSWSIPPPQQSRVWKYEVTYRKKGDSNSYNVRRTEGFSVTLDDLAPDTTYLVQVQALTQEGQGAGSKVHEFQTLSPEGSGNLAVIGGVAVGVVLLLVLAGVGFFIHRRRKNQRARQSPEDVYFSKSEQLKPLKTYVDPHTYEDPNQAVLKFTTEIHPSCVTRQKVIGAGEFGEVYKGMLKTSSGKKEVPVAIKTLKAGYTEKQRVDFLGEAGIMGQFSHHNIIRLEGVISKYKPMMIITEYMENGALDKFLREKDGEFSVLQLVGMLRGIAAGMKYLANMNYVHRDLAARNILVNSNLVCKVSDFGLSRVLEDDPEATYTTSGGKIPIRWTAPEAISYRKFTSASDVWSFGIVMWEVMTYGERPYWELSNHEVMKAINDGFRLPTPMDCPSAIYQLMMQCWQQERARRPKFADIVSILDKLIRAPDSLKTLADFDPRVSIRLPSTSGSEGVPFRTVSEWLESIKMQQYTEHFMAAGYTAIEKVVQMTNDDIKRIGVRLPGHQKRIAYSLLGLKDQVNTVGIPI
Description: Serum-starved PC-3 cells were treated with different SWL-DNA trimer constructs (9 µM), monomeric SWL peptide (150 µM) and the natural ligand ephrin-A1 (1.5 µg/mL) in duplicates for 30 min at 37 °C. Cells were washed with 1× PBS twice and further treated according to the manufacturer’s instructions.
Serum-starved PC-3 cells were treated with different concentrations of constructs in duplicates for 30 min at 37 °C. Cells were washed with 1× PBS twice and further treated according to the manufacturer’s instructions. […] Standard deviation is presented as error bars. The x-axis indicates concentrations of the constructs in terms of DNA for 0xSWL-DNA trimer—3xSWL-DNA trimer and the concentration of the peptide for SWL.
Levels of EphA2 phosphorylation were determined using the DuoSet IC Human Phospho-EphA2 kit (R&D systems, Minneapolis, MN, USA) which is based on a sandwich ELISA. Briefly, 2 × 10^5 PC-3 cells were seeded three days before the assay for the comparison of ligands. For the concentration series used to determine EC50 values, 1 × 10^6 PC-3 cells were seeded into 12-well culture plates one day before the assay. On the day of the experiment, cells were serum-starved for 4 h and treated with either 1xSWL-DNA trimer, 2xSWL-DNA trimer, 3xSWL-DNA trimer, natural ligand ephrin-A1, SWL peptide, DNA trimer only or 1× PBS/10 mM MgCl2 as negative control for 30 min at 37 °C. Cells were lysed using 250 µL/well lysis buffer (according to kit) and assayed as indicated by manufacturer’s instructions. Manifold washing was conducted after every step and the whole procedure was executed at room temperature. In brief, 96-well ELISA plates carrying specific human EphA2 capture antibodies were incubated with cell lysates of afore treated PC-3 cells. This was followed by the addition of anti-phospho-tyrosine-HRP antibodies which ultimately fulfil a colorimetric reaction by conversion of 3,3′,5,5′-Tetramethylbenzidine substrate solution for 25 min (ligands in Figure 4a) or 8 min (ephrin-A1 in Figure A7). This reaction was stopped by adding 2 N H2SO4 and absorbance was measured at 450 nm and at 520 nm (infinite M1000, Tecan, Switzerland); the latter was subtracted as reference value. To normalize values from concentration series, controls (only 1× PBS/10 mM MgCl2) were subtracted, too. Data was analyzed by fitting to the equation: (1) A=Amin+(Amax−Amin)/1+(x/EC50)^−b where A is the observed absorbance, Amin and Amax are minimal and maximal absorbance respectively, and b is the Hill coefficient.

- EC50 [1]: 154000 ± 115000 nM
Molecule: CC(C)C[C@H](NC(=O)[C@H](Cc1c[nH]c2ccccc12)NC(=O)[C@@H](N)CO)C(=O)N[C@@H](C)C(=O)N[C@@H](Cc1ccc(O)cc1)C(=O)N1CCC[C@H]1C(=O)NCC(=O)N[C@@H](C)C(=O)N[C@H](C(=O)N[C@@H](CO)C(=O)N[C@@H](Cc1ccc(O)cc1)C(=O)N[C@@H](CCCNC(=N)N)C(=O)NCC(=O)NCC(=O)N[C@@H](CCCCN=[N+]=[N-])C(=O)O)C(C)C [SWL, reference compound]

- EC50 for EphA2 receptor phosphorylation (ephrin-A1 dose-response (Figure A7), PC-3 cells, 30 min at 37 °C, substrate reaction 8 min): 0.0552 ± 0.0103 µg/mL
- EC50 (ephrin-A1 dose-response (Figure A7), PC-3 cells, conversion of the µg/mL value): 2.65 nM
- EC50 [1]: 2.7 ± 0.5 nM
B1: ephrin-A1: natural EphA2 protein ligand, molecular weight approx. 21 kDa (protein)
chain: DRHTVFWNSSNPKFRNEDYTIHVQLNDYVDIICPHYEDHSVADAAMEQYILYLVEHEEYQLCQPQSKDQVRWQCNRPSAKHGPEKLSEKFQRFTPFTLGKEFKEGHSYYYISKPIHQHEDRCLRLKVTVSGKITHSPQAHDNPQEKRLAADDPEVRVLHSIGHS
modifications: Limits are the mature chain without signal peptide and GPI propeptide, by convention; the approx. 21 kDa MW fits a non-Fc soluble form; Possible N-glycan at Asn
